Data reported in the supplement of paper PMC9170038.

Columns and labels:
MS2 coat protein [1] = test: apparent KD of MS2 coat protein, switch ON state; designed switch direction (-1 OFF switch, 1 ON switch): -1; higher = weaker reporter binding; settings: FMN input: 0 or 200 uM; Eterna round: R93 (includes R88 designs)
How it was run: (§1)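 Apparent KD per design is the median of normalised cluster binding-curve fits. Designed RNA switches transcribed on-chip from Illumina sequencing clusters were titrated with SNAP-549-labelled MS2 coat protein in twofold steps from 0.7 or 1.5 nM to 3 µM, with 0.8–1.5 h down to 10–20 min per step. Buffer: 100 mM Tris-HCl pH 7.5, 80 mM KCl, 4 mM MgCl2, without or with constant ligand.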

MS2 coat protein [2] = test: apparent KD of MS2 coat protein, switch OFF state (with FMN for OFF switches, without FMN for ON switches); designed switch direction (-1 OFF switch, 1 ON switch): -1; higher = weaker reporter binding; settings: FMN input: 0 or 200 uM; Eterna round: R93 (includes R88 designs)
How it was run: as §1

Question: What does the source list for “AAGAACGAAGGAUAUACAUGAAAGAAAGAAAAGAAAAGAAAACAUGAGGAUCACCCAUGUAGAAGGUCGUAGAA [EteRNA is fun!]”?
Answer: apparent KD of MS2 coat protein (MS2 coat protein [1]): 26.2 nM; apparent KD of MS2 coat protein (MS2 coat protein [2]): 28.8 nM

Question: Which “apparent KD of MS2 coat protein” value (MS2 coat protein [1]) does the source give for “AAGAACGGAGGAUAUACAAAAUAAAAGAAAAGAAAGAAAGAACAUGAGGAUCACCCAUGUAGAAGGUCGAAGAA [Seth Meribre]” here?
Answer: 14.9 nM

Question: And the “apparent KD of MS2 coat protein” value (MS2 coat protein [2])?
Answer: 20.8 nM

Question: What does the source list for “AAGAACGUAGGAUAUACAUGAGGAUCACCCAUGUAAAAGAAAGAAAAGGGAAAGAAAAGUAGAAGGACGAAGAA [Usermaatre-setpenre Ramesses II]”?
Answer: apparent KD of MS2 coat protein (MS2 coat protein [1]): 42.1 nM; apparent KD of MS2 coat protein (MS2 coat protein [2]): 34.4 nM

Question: With “AAGAACUAAGGAUAUACAAGGAAGAAAGAAAAGAAAAGAAAACAUGAGGAUCACCCAUGUAGAAGGUAGUAGAA [EteRNA is fun!]” as the sequence, how does the “apparent KD of MS2 coat protein” value (MS2 coat protein [1]) read?
Answer: 28.8 nM

Question: What about the “apparent KD of MS2 coat protein” value (MS2 coat protein [2]) of the same sequence?
Answer: 24.7 nM

Question: “AAGAACUGAGGAUAUGCAAAAGGGAAAGCUGAUCCUCAUCUACAUGAGGAUCACCCAUGUAGAAGGCGGGAAAU [Aveerve]” was tested. Which “apparent KD of MS2 coat protein” value (MS2 coat protein [1]) did it give?
Answer: 63.4 nM

Question: What about the “apparent KD of MS2 coat protein” value (MS2 coat protein [2]) of the same sequence?
Answer: 47.7 nM

Question: “AAGAACUUAGGAUAUACAAAAUAAAAGAAAAGAAAGAAAGAACAUGAGGAUCACCCAUGUAGAAGGGAGAAGAA [Nimaatre Amenemhat III]” was tested. Which “apparent KD of MS2 coat protein” value (MS2 coat protein [1]) did it give?
Answer: 55.9 nM

Question: And the “apparent KD of MS2 coat protein” value (MS2 coat protein [2])?
Answer: 29.8 nM

Question: How did the “apparent KD of MS2 coat protein” value (MS2 coat protein [1]) turn out when “AAGAAGAGAGGAUAUACAUGAAAGAAAGAAAAGAAAAGAAAACAUGAGGAUCACCCAUGUAGAAGGCUCAAGAA [EteRNA is fun!]” was run?
Answer: 39.4 nM

Question: What about the “apparent KD of MS2 coat protein” value (MS2 coat protein [2]) of the same sequence?
Answer: 40.6 nM

Question: Which results are given for “AAGAAGAGAGGAUAUACUAAAGAAAUGAAAAGAAAGAAAGAACAUGAGGAUCACCCAUGUAGAAGGCUCAAGAA [Snaaib]”?
Answer: apparent KD of MS2 coat protein (MS2 coat protein [1]): 27.8 nM; apparent KD of MS2 coat protein (MS2 coat protein [2]): 18.1 nM

Question: What does the source list for “AAGAAGAGAGGAUAUACUAAAGAAAUGAAAAGAAAUAAAGAACAUGAGGAUCACCCAUGUAGAAGGCUCAAGAA ['Ammu Ahotepre]”?
Answer: apparent KD of MS2 coat protein (MS2 coat protein [1]): 25.5 nM; apparent KD of MS2 coat protein (MS2 coat protein [2]): 21 nM

Question: Which “apparent KD of MS2 coat protein” value (MS2 coat protein [1]) does the source give for “AAGAAGCAAGGAUAUACAAAAUAAAAGAAAAGAAAGAAAGAACAUGAGGAUCACCCAUGUAGAAGGUGCAAGAA [Djedkheperew]” here?
Answer: 31.1 nM

Question: What about the “apparent KD of MS2 coat protein” value (MS2 coat protein [2]) of the same sequence?
Answer: 31 nM

Question: Which “apparent KD of MS2 coat protein” value (MS2 coat protein [1]) does the source give for “AAGAAGCUAGGAUAUACAAAAUAAAAGAAAAGAAAGAAAGAACAUGAGGAUCACCCAUGUAGAAGGAGCAAGAA [Sebkay]” here?
Answer: 31.3 nM

Question: And the “apparent KD of MS2 coat protein” value (MS2 coat protein [2])?
Answer: 21.4 nM

Question: Which “apparent KD of MS2 coat protein” value (MS2 coat protein [1]) does the source give for “AAGAAGGAAGGAUAUACAAAAUAAAAGAAAAGAAAGAAAGAACAUGAGGAUCACCCAUGUAGAAGGUCCAAGAA [Sedjefakare]” here?
Answer: 29.8 nM

Question: What about the “apparent KD of MS2 coat protein” value (MS2 coat protein [2]) of the same sequence?
Answer: 34.7 nM

Question: What does the source list for “AAGAAGGCAGGAUAUACAUGAGGAUCACCCAUGUAAAAGAAAGAAGGGAAAGAGAAAAGUAGAAGGGCCAAGAA [Hedjkheperre-setpenre Takelot II]”?
Answer: apparent KD of MS2 coat protein (MS2 coat protein [1]): 43.8 nM; apparent KD of MS2 coat protein (MS2 coat protein [2]): 68.4 nM

Question: Which “apparent KD of MS2 coat protein” value (MS2 coat protein [1]) does the source give for “AAGAAGGGAGGAUAUACAAAAUAAAAGAAAAGAAAGAAAGAACAUGAGGAUCACCCAUGUAGAAGGCCCAAGAA [Iufni]” here?
Answer: 22.3 nM

Question: What about the “apparent KD of MS2 coat protein” value (MS2 coat protein [2]) of the same sequence?
Answer: 21.2 nM

Question: “AAGAAGGGAGGAUAUACAUGAGGAUCACCCAUGUAAAAGAAAGAAAAGGGAAAGAAAAGUAGAAGGCCCAAGAA [Seqenenre Tao]” was tested. Which “apparent KD of MS2 coat protein” value (MS2 coat protein [1]) did it give?
Answer: 36.9 nM

Question: What about the “apparent KD of MS2 coat protein” value (MS2 coat protein [2]) of the same sequence?
Answer: 40.2 nM

Question: Which results are given for “AAGAAGGUAGGAUAUACUAAAGAAAUGAAAAGAAAUAAAGAACAUGAGGAUCACCCAUGUAGAAGGACCAAGAA [Webenre]”?
Answer: apparent KD of MS2 coat protein (MS2 coat protein [1]): 25.8 nM; apparent KD of MS2 coat protein (MS2 coat protein [2]): 32.2 nM

Question: “AAGAAGGUAGGAUAUACUAGGGAAACUAAUGCAAAGAUAAAACAUGAGGAUCACCCAUGUAGAAGGGCCAGAAA [JR_Exc002_Sub017]” was tested. Which “apparent KD of MS2 coat protein” value (MS2 coat protein [1]) did it give?
Answer: 40.8 nM

Question: And the “apparent KD of MS2 coat protein” value (MS2 coat protein [2])?
Answer: 65.5 nM
